Patent US20230212305A1, “ANTI-ABCG2 ANTIBODIES AND USES THEREOF” (Kenjockety Biotechnology, Inc., priority 2020, published 2023)
Changes are numbered by the printed parent chain.

B1: G2.630 rat: anti-ABCG2 antibody raised in rat (antibody, V domains shown)
VH: EVQLVESGPGLVKPSQSLSLTCSVTGYTITSGYDWTWIRKFPGNKMEWMGYISYSGFTNYNPSLRSRISITRDTSKNQFFLQLNSVTTEDTATYYCTRTRGYNPFAYWGQGTLVTVSS
VL: DVVMTQSPSLLSASVGDRVTLSCKAGRNINNYLAWYQQKLGKAPKLLIYNTNSLQTGIPSRFSGSGSGTDFTLTISSLQPEDVATYFCQQYNSWTTFGSGTKLEIK
B2: G2.642 rat: anti-ABCG2 antibody raised in rat (antibody, V domains shown)
VH: QIQLVQSGAELVKPGASVKLSCKTSGFTFSSNYISWLRQKPRQSLEWIAWIYSGTGGTYYNQKFTGKAQLTIDTSSNTAYMQLSSLTSEDSAIYYCARHVGLRYWYFDVWGAGTSVTVSS
VL: DIVLTQSPASLTVSLGQRATISCRASESVDSNGNSFMHWYQQKPGQSPKVLIYRASNLESGVPARFSGSGSRTDFTLTINPVEADDVATYYCQQSNEDPWTFGGGTKLEIKREF
B3: G2.641 rat: anti-ABCG2 antibody raised in rat (antibody, V domains shown)
VH: EVKLEESGGGLVQPGRSLKLSCAASGFTFSRFYMAWVRQAPTKGLEWVAHISHGGDTTYYRDSVKGRFTISRDNAKSTLFLQMDSLRSEDTATYYCTTSAAPWNYVMDGWGLGASVTVSS
VL: DIQMTQSPSLLSASVGDRVTLTCKGSQNINNFLAWYQQKLGEAPKLLIYKTNSLHTGIPSRFSGSGSGTDYTLTISSLHSEDLATYYCYQYNNGYTFGAGTKLELK
B4: G2.256 mouse: anti-ABCG2 antibody raised in mouse, listed in Table 2 (antibody, V domains shown)
VH: EVQLQQSGPELVKPGASLKISCKTFGYSFTGYYMHWVKQSPEKSLEWIGKIVPSTGGTTYNQKFKAKATLTVDKSSFTAYMQLKSLTSEDSAVYYCAREKVYGYDVYYFDYWGQGTTLTVSS
VL: DIVMSQSPATLSVTPGDRVSLSCRASQSISDYLHWYQQKSHESPRLLIKYASQSISGIPSRFSGSGSGSDFTLSINSVEPEDVGVYYCQNGHSFPWTFGGGTKLEIK
B5: G2.255 mouse: anti-ABCG2 antibody raised in mouse, listed in Table 2 (antibody, V domains shown)
VH: EVMLVESGGALVKPGGSLKLSCAASGFTFSNNAMSWVRQTPETRLEWVATITGGGSYTYYPDSVKGRFTISRDNARNTLYLQMSSLRSEDTATYYCASPDGNYEGVLAYWGQGTLVTVSA
VL: DIQMNQSPSSLSASLGDRVTISCSASQGISNYLNWYQQKPDGTIKLLIYYTSTLHSGVPSRFSGSGSGTDYSLTISNLEPEDIATYYCQHYSSLPWTFGGGTKLEIK
B6: G2.248 mouse: anti-ABCG2 antibody raised in mouse, listed in Table 2 (antibody, V domains shown)
VH: QVQLQQPGAELVKPGASVKLSCKTSGFTFSNSYISWLKQKPRQSLEWIAWIYAGTGGTNYNQKFTGKAQLTVDTSSSTAYMQLSSLTSEDSAIYYCATYGNFLYAMDNWGQGTSVTVSS
VL: DIQMKQSPASLSASVGETVTITCRASGNIHNYLAWYQQKQGKSPQLLVYNTKTLADGVPSRFSGSGSGTQYSLKINSLQPEDFGSYYCQHFWSTPWTFGGGTKLEIK
B7: G2.636 rat: anti-ABCG2 antibody raised in rat (antibody, V domains shown)
VH: B3 VH with E5V
VL: B3 VL with Q3V
B8: G2.629 rat: anti-ABCG2 antibody raised in rat (antibody, V domains shown)
VH: EVQLVESGGGLVQPGRSLKLSCAASGFIFSRFYMAWVRQAPTKGLEWVAYINTGGGTTYYRDSVKGRFTISRDNAKTTLYLQMDSLRSEDTATYYCTTLAAPWNYVMDAWGQGASVTVSSA
VL: B3 VL with I2V, Q3V, I48T, A99P

Test system: cynomolgus ABCG2
Sequence (as listed by the source): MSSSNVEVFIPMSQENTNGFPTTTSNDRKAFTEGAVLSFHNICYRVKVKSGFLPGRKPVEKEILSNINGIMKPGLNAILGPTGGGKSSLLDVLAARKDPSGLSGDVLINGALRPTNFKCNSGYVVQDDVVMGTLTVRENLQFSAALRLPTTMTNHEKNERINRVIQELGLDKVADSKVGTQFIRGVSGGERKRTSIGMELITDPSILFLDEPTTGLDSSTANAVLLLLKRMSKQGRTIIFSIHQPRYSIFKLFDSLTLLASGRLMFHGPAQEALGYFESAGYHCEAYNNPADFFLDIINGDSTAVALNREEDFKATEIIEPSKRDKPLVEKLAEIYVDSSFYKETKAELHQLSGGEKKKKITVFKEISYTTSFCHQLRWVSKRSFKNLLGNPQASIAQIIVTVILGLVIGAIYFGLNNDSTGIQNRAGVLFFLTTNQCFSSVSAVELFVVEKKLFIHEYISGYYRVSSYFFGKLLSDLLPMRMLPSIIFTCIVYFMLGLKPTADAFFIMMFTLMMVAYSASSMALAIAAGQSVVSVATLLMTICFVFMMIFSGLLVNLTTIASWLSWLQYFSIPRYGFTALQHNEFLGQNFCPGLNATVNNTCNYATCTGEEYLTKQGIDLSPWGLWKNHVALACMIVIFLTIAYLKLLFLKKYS
Assay: Flow cytometry binding to 293T cells overexpressing cynomolgus ABCG2
Parameters: key to Cynomolgus ABCG2 binding: binding=“+”; non-significant binding=“−”
Conditions: not given
Method: (§1) Cell Binding Assays. Antibody binding to cells was evaluated by flow cytometry. 293T cells stably transfected to express human or cynomolgus ABCG2 (293T_ABCG2_OX) were washed once in flow cytometry buffer (PBS+2% FBS+0.02% sodium azide), resuspended at 2×10^6 cells/mL in flow cytometry buffer, and dispensed into 96-well microtiter plates at 0.1 mL/well. Recombinant antibodies were added to cells at 5 ug/mL for initial binding confirmation, or serially diluted from 100 ug/mL in flow cytometry buffer. After incubating cells on ice for 30 min, cells were washed twice with flow cytometry buffer. Bound antibody was detected with PE-labeled F(ab′)2 fragment goat anti-human IgG (Jackson ImmunoResearch) and evaluated on an Attune NxT flow cytometer. EC50 is calculated to be the concentration of antibody that gives half maximal response.

Molecule | Cynomolgus ABCG2 binding
B1 | +
B2 | −
B3 | +
B4 | −
B5 | −
B6 | −

Same assay, conditions: in words; FIGS. 7-11, 21

Molecule | binding to 293T cells overexpressing cynomolgus ABCG2
B7 | strong binding

Biological target: T1, ABCG2 (Homo sapiens, UniProt Q9UNQ0)
T1 construct: expressed in transfected cells
T1 sequence (Q9UNQ0 1-655): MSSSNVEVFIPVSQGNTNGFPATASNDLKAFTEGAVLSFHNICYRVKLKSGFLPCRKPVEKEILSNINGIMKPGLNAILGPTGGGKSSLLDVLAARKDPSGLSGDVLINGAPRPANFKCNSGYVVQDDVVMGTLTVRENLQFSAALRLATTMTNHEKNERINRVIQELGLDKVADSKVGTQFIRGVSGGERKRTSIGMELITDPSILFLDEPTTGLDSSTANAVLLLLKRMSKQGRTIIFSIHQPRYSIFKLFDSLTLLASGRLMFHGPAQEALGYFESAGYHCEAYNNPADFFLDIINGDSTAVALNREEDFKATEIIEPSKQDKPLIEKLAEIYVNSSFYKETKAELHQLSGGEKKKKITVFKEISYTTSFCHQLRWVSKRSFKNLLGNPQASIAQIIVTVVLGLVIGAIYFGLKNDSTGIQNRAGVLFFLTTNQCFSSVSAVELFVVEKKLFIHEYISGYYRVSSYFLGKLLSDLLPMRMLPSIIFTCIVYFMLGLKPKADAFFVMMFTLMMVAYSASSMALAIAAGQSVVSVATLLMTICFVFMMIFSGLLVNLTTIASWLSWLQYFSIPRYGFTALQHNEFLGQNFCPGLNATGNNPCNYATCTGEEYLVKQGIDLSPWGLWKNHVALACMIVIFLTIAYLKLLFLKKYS
Assay: not given
Type: cell-based
Conditions: not given
Method: 293T_ABCG2_OX cells were washed several times and aliquoted into 96-well plates as 50 μl aliquots/well at a cell density of 2×10e6 cells per ml in phenol red-free DMEM. Cells were mixed with 50 μl antibodies or the small molecule inhibitors of ABCG2:-fumitremorgin C (FTC), or its tetracyclic analogue K0143, with a final concentration of 1 μM. Cells were then incubated in the presence of 2.5 μM Mitoxantrone 1 h at 37° C. The cells were subsequently washed twice and finally resuspended in […] PBS. Mitoxantrone fluorescence was measured using excitation at 635 nm and emission at 647 nm. Protocols was measuring efflux blockade are found in Szabo E, et al., PLoS One. 2018 Jan. 17; 13(1):e0190629; Deeken J F, et al., Mol Pharmacol. 2009 November; 76(5):946-56).

Molecule | Block Efflux
B1 | +
B2 | −
B7 | ++
B3 | ++
B8 | +
B4 | −
B5 | −
B6 | −

Test system: 293T_ABCG2_OX cells
Assay: not given
Type: cell-based, human
Conditions: cell killing by topotecan on 293T_ABCG2_OX cells; viability relative to IgG control
Method: Cytotoxicity Assays. The effect of antibodies on topotecan cytotoxicity was evaluated on 293T_ABCG2_OX cells, 293T cells stably transfected to express ABCG2. Cells were plated in 0.05 mL of Assay Media (DMEM+10% FBS) at 5000 cells/well in white, flat bottom 96-well tissue culture plates. Topotecan was prepared at 2× final assay concentration by serial dilution from 200 uM in assay media containing test antibodies or control antibodies at 100 ug/mL (2× final concentration), or Fumitremorgin C, a small molecule ABCG2 inhibitor at 20 uM (2× final concentration). An equivalent volume (0.05 mL) of the topotecan/antibody mixture was added to the 293T_ABCG2_OX cells in 96-well plates. The plates were then incubated at 37° C., in 5% CO2. After 72-96 hr plates were equilibrated to room temperature and cell viability assessed using Promega® CellTiter-Glo® Luminescent Cell Viability Assay according to the manufacturer's recommended protocol. Luminescence was measured on a Molecular Devices® FlexStation® 3 Multi-Mode Microplate Reader and data analyzed using GraphPad Prism 8.0 software. Half maximal inhibitory concentration (1050) is the concentration of drug (topotecan or other chemotherapy cytotoxic agent) where the response (cell growth) is reduced by 50%.

Molecule | Killing
B1 | + (viability ≥30% and <50% of IgG control)
B2 | − (≥75% of IgG control)
B7 | +++ (viability <10% of IgG control)
B3 | ++ (viability ≥10% and <30% of IgG control)
B8 | + (viability ≥30% and <50% of IgG control)
B4 | − (≥75% of IgG control)
B5 | − (≥75% of IgG control)
B6 | − (≥75% of IgG control)

Test system: Panc1/T300 cells
Assay: Xenograft study with topotecan-resistant Panc1/T300 cells
Type: in vivo
Conditions: not given
Method: PANC1 (ATCC, CRL-1469) is a pancreatic ductal epithelial carcinoma cell line. The topotectan-resistant Panc1/T300 cells were developed by continuously incubating PANC1 cells in the culture medium containing increasing concentration of topotecan of 25, 50, 100, 200 and 300 nM. […] The arrows indicate the dosing schedule.

Molecule | tumor volume, in combination with topotecan
B7 | efficacious in reducing tumor volume
B8 | efficacious in reducing tumor volume

Biological target: T1, ABCG2
Assay: Flow cytometry binding to 293T cells overexpressing human ABCG2 (293T_ABCG2_OX)
Parameters: key to Binding by FACS: binding=“+”; non-significant binding=“−”
Conditions: 293T_ABCG2_OX cells
Method: as §1

Molecule | Binding by FACS
B1 | +
B2 | +
B7 | +
B3 | +
B8 | +
B4 | +
B5 | +
B6 | +

Same assay, conditions: in words; FIGS. 7-11, 21

Molecule | binding to 293T cells overexpressing human ABCG2
B7 | strong binding
